Measured values as given in patent publication US7888089B2, “eNOS mutations useful for gene therapy and therapeutic screening” (Yale University, priority 1999, dated 2011).
Entries after “also recorded” stand apart in the source; their conditions may differ. Like-named read-outs stand apart in the source and are kept apart here.

Tests used:
eNOS [1] = test: NOS activity (3H-L-arginine to 3H-L-citrulline) in COS cell lysates; format: biochemical, bovine; conditions: COS cells transfected with eNOS only, n=3
Excerpt: NOS activity assays: The conversion of ^3H-L-arginine to ^3H-L-citrulline was used to determine NOS activity in COS cell or endothelial cell lysates as previously described by Garcia-Cardena et al. (1998).

eNOS [2] = test: Hemoglobin capture assay of NO production by purified eNOS; format: biochemical, bovine; conditions: for Kcat (substrate Arginine, Hemoglobin capture): rate of NO production vs L-arginine, optimal conditions
Description: Assay for NOS Activity—NO production was measured by the hemoglobin capture assay as described (Kelm et al., 1988). Briefly, the reaction mixture contained eNOS (0.5-2.5 μg), oxyhemoglobin (8 μM), L-arginine (100 μM), BH4 (5 μM), CaCl2 (120 μM), calmodulin (120-200 nM), and NADPH (100 μM) in HEPES buffer (50 mM), pH 7.4. […] Under these conditions, free calcium was calculated using the WinMAXC program, version
NOS activity was monitored for linearity over 2 min at 401 nm, and NO production was calculated based on the change of absorbance using the extinction coefficient of 60 mM^−1 cm^−1. All reactions were carried out at 23° C., and each data point represents 3-8 observations. The extinction coefficient of 0.0033 μM^−1 cm^−1 at 276 nm was used for determination of calmodulin concentration. […] When the inactivation of eNOS was determined by the addition of EGTA (200-800 μM) to the reaction mixture, chelator was added 1 min after initiation of the reaction by NADPH. Identical conditions were used when NADPH-cytochrome c reductase activity was examined. These reactions contained CaM (120 nM) and CaCl2 (200 μM) in a 0.5-ml volume with eNOS (0.5 μg).

eNOS [3] = test: Conversion of L-arginine to L-citrulline by purified eNOS; format: biochemical, bovine; conditions: for Kcat (CaM, L-Citrulline): CaM activation of NOS activity
Description: The conversion of L-arginine to L-citrulline was assayed as described previously by Bredt et al. (1990). Briefly, eNOS (0.25-2 μg) was incubated for 3-10 min at 23° C. in the following reaction mixture: 3 pmol of L-[3H]arginine (55 Ci/mmol), 10-300 μM arginine, 1 mM NADPH, 120-200 nM calmodulin, 2 mM CaCl2, and 30 μM BH4 in a final reaction volume of 50-100 μl. The reaction was terminated by the addition of 0.5 ml of 20 mM HEPES, pH 5.5, containing 2 mM EGTA and EDTA. The reaction mixture was placed over Dowex AG50WX8, and the flow-through was counted on a Packard 1500 liquid scintillation analyzer.

cytochrome c = test: NADPH-cytochrome c reductase activity of purified eNOS; format: biochemical; conditions: for Kcat (CaM, Cytochrome c): CaM activation of cytochrome c reduction; for EC50: cytochrome c reduction; for Km: Km for NADPH; for Kcat − CaM (NADPH, Cytochrome c) / Kcat + CaM (NADPH, Cytochrome c): NADPH dependence
Description: Assays for Reductase Activity—NADPH-cytochrome c reductase activity and 2,6-dichlorophenolindophenol (DCIP) reduction were measured as a change in absorbance at 550 nm as described previously by Martasek et al. (1999) and Masters et al. (1967) using an extinction coefficient of 0.021 μM^−1 cm^−1 for both cytochrome c and DCIP. Briefly, a reaction mixture (1 ml) contained either cytochrome c (90 μM); DCIP (36 μM), HEPES buffer (50 mM) at pH 7.6, NaCl (250 mM), NADPH (100 μM), calmodulin (120 nM), and CaCl2 (200 μM); or other substances as indicated. The reaction was monitored for 60 s (at 23° C.) after the addition of eNOS. When inactivation of reductase activity was determined by the addition of EGTA (200-800 μM), chelator was added 1 min after initiation of the reaction and monitored for an additional 1 min. The reaction contained HEPES buffer (50 mM) at pH 7.6, CaM (120 nM), and CaCl2 (200 μM) and was initiated with NADPH (100 μM). No NaCl was added in experiments that examined EGTA inactivation of eNOS to mimic the conditions used in the hemoglobin capture experiments. […] Determination of the calcium EC50 for eNOS was performed as described above for the hemoglobin capture assay.

B1: Wild type: Wild type bovine endothelial nitric oxide synthase (eNOS) (protein, UniProt P29473 2-1205, looked up)
Nitric oxide synthase 3: GNLKSVGQEPGPPCGLGLGLGLGLCGKQGPASPAPEPSRAPAPATPHAPDHSPAPNSPTLTRPPEGPKFPRVKNWELGSITYDTLCAQSQQDGPCTPRCCLGSLVLPRKLQTRPSPGPPPAEQLLSQARDFINQYYSSIKRSGSQAHEERLQEVEAEVASTGTYHLRESELVFGAKQAWRNAPRCVGRIQWGKLQVFDARDCSSAQEMFTYICNHIKYATNRGNLRSAITVFPQRAPGRGDFRIWNSQLVRYAGYRQQDGSVRGDPANVEITELCIQHGWTPGNGRFDVLPLLLQAPDEAPELFVLPPELVLEVPLEHPTLEWFAALGLRWYALPAVSNMLLEIGGLEFSAAPFSGWYMSTEIGTRNLCDPHRYNILEDVAVCMDLDTRTTSSLWKDKAAVEINLAVLHSFQLAKVTIVDHHAATVSFMKHLDNEQKARGGCPADWAWIVPPISGSLTPVFHQEMVNYILSPAFRYQPDPWKGSATKGAGITRKKTFKEVANAVKISASLMGTLMAKRVKATILYASETGRAQSYAQQLGRLFRKAFDPRVLCMDEYDVVSLEHEALVLVVTSTFGNGDPPENGESFAAALMEMSGPYNSSPRPEQHKSYKIRFNSVSCSDPLVSSWRRKRKESSNTDSAGALGTLRFCVFGLGSRAYPHFCAFARAVDTRLEELGGERLLQLGQGDELCGQEEAFRGWAKAAFQASCETFCVGEEAKAAAQDIFSPKRSWKRQRYRLSTQAEGLQLLPGLIHVHRRKMFQATVLSVENLQSSKSTRATILVRLDTAGQEGLQYQPGDHIGICPPNRPGLVEALLSRVEDPPPPTESVAVEQLEKGSPGGPPPSWVRDPRLPPCTLRQALTFFLDITSPPSPRLLRLLSTLAEEPSEQQELETLSQDPRRYEEWKWFRCPTLLEVLEQFPSVALPAPLLLTQLPLLQPRYYSVSSAPNAHPGEVHLTVAVLAYRTQDGLGPLHYGVCSTWLSQLKTGDPVPCFIRGAPSFRLPPDPYVPCILVGPGTGIAPFRGFWQERLHDIESKGLQPAPMTLVFGCRCSQLDHLYRDEVQDAQERGVFGRVLTAFSREPDSPKTYVQDILRTELAAEVHRVLCLERGHMFVCGDVTMATSVLQTVQRILATEGDMELDEAGDVIGVLRDQQRYHEDIFGLTLRTQEVTSRIRTQSFSLQERHLRGAVPWAFDPPGPDTPGP
eNOS [1]
  NOS activity in lysates: 85.3±27.0 pmol L-citrulline generated/mg protein
eNOS [2]; 600 μM EGTA, 200 μM calcium, listed as wild type eNOS
  NO production after calcium chelation with EGTA: no activity was detected; also recorded: no detectable activity
eNOS [2]; EC50 for free calcium, NO production, 250 nM CaM, read-out: EC50 (Ca2+, Hemoglobin capture, 100 mM KCl)
  EC50: 310 nM
eNOS [2]; Km for L-arginine, read-out: Km (substrate Arginine, Hemoglobin capture)
  Km: 1.8 µM
eNOS [2]; Km for NADPH, in presence of CaM, read-out: Km (NADPH, Hemoglobin capture)
  Km: 8 µM
eNOS [2]; NADPH dependence, in presence of CaM
  Kcat (NADPH, Hemoglobin capture): 0.283 ± 0.017 s⁻¹
eNOS [2]; calcium activation, 250 nM CaM
  Kcat (Ca2+, Hemoglobin capture, 100 mM KCl): 0.967 ± 0.017 s⁻¹
eNOS [2]; calcium-dependent NO production
  maximal turnover rate, FIG. 8C: 58 min1
eNOS [2]; calmodulin-dependent hemoglobin capture
  maximal turnover rate, FIG. 8A: 22 min⁻¹
eNOS [2]
  Kcat (substrate Arginine, Hemoglobin capture): 0.45 ± 0.017 s⁻¹
eNOS [2]; listed as wild type
  Kcat (substrate Arginine, Hemoglobin capture): 0.45 ± 0.017 s⁻¹
eNOS [3]
  Kcat (CaM, L-Citrulline): 0.367 ± 0.033 s⁻¹
eNOS [3]; listed as wild type
  Kcat (CaM, L-Citrulline): 0.367 s⁻¹
eNOS [3]; EC50 for CaM, NOS activity
  EC50: 8 nM
Cytochrome c
  Kcat (CaM, Cytochrome c): 10.3 ± 1.3 s⁻¹
Cytochrome c; listed as wild type eNOS
  Kcat (CaM, Cytochrome c): 10.3 s⁻¹
Cytochrome c; EC50 for CaM, listed as wild type, read-out: EC50 (CaM, Cytochrome c)
  EC50: 21 nM
Cytochrome c; EC50 for CaM, read-out: EC50 (CaM, Cytochrome c)
  EC50: 13 nM
Cytochrome c; EC50 for free calcium, read-out: EC50 (Ca2+, Cytochrome c, 100 mM KCl)
  EC50: 290 nM
Cytochrome c; absence of CaM
  Km: 0.4 µM
  Kcat − CaM (NADPH, Cytochrome c): 1.17 ± 0.083 s⁻¹
  cytochrome c reduction, first value of pair (with superoxide dismutase): 86 ± 6 min⁻¹
  cytochrome c reduction, second value of pair (without superoxide dismutase): 95 ± 8 min⁻¹
Cytochrome c; presence of CaM
  Km: 0.75 µM
  Kcat + CaM (NADPH, Cytochrome c): 7.67 ± 0.3 s⁻¹
  cytochrome c reduction with superoxide dismutase: 610 ± 51 min⁻¹
  cytochrome c reduction without superoxide dismutase: 866 ± 8 min⁻¹
  relative decrease in cytochrome c activity in the presence of superoxide dismutase: 30%
Cytochrome c; absence of CaM, listed as wild type eNOS
  Kcat − CaM (NADPH, Cytochrome c): 1.17 s⁻¹
Cytochrome c; presence of CaM, listed as wild type eNOS
  Kcat + CaM (NADPH, Cytochrome c): 7.67 s⁻¹
Cytochrome c; calcium activation
  Kcat (Ca2+, Cytochrome c, 100 mM KCl): 31.82 ± 0.55 s⁻¹
Cytochrome c; calcium-dependent cytochrome c reduction
  maximal turnover rate, FIG. 8D: 1930 min⁻¹
Cytochrome c; calmodulin-dependent cytochrome c reduction
  maximal turnover rate, FIG. 8B: 620 min1
Cytochrome c; highest concentration of EGTA
  reductase activity after calcium chelation with EGTA: residual reductase activity was found
Cytochrome c; presence of CaM, n=3-5
  CaM-stimulated cytochrome c reduction: 749 ± 35 min⁻¹
Cytochrome c; with vs without CaM
  level of stimulation of cytochrome c reduction by CaM: 8 fold
